Reference: paper PMC9482650, “Quantitative fragmentomics allow affinity mapping of interactomes” (Nature Communications, 2022)

Experiments:
Test in all cases: holdup assay
Design in all cases: key: below the threshold = too weak to quantify, mostly under pKd 3.1 to 4
ARHGEF12, Q9NZN5-2 = target: ARHGEF12, Q9NZN5-2
DLG1_2, Q12959 = target: DLG1_2, Q12959
DLG2_2, Q15700 = target: DLG2_2, Q15700
DLG3_2, Q92796 = target: T1, DLG3_2, Q92796
T1 sequence (Q92796 221-321, limits assumed, looked up): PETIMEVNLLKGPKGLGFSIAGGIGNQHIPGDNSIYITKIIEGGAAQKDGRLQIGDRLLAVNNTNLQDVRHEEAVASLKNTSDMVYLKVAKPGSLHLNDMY

DLG4_1, P78352 = target: DLG4_1, P78352
Sequence of DLG4_1, P78352 (P78352 62-152): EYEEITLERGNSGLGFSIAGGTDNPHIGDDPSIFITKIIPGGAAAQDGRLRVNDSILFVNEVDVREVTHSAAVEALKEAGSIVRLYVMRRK

FRMPD1, Q5SYB0 = target: T2, FRMPD1, Q5SYB0
T2 sequence (Q5SYB0 52-145, limits assumed, looked up): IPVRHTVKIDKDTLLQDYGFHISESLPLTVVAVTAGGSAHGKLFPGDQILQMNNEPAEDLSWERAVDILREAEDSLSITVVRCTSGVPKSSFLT

FRMPD3, Q5JV73 = target: FRMPD3, Q5JV73
Sequence of FRMPD3, Q5JV73 (Q5JV73 12-100): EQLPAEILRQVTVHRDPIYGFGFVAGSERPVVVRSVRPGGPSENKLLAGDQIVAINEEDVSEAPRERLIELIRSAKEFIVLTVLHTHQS

GOPC, Q9HD26 = target: GOPC, Q9HD26
GORASP2, Q9H8Y8 = target: GORASP2, Q9H8Y8
GRIP1_3, Q9Y3R0 = target: T3, GRIP1_3, Q9Y3R0
T3 sequence (Q9Y3R0 247-346, limits assumed, looked up): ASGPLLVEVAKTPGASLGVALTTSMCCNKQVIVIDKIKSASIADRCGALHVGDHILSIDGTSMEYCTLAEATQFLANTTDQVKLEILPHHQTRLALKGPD

GRIP1_7, Q9Y3R0 = target: T4, GRIP1_7, Q9Y3R0
T4 sequence (Q9Y3R0 999-1096, limits assumed, looked up): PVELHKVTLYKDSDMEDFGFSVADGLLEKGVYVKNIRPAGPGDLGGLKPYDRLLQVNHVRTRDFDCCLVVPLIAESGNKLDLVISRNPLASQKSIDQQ

GRIP2_3, Q9C0E4 = target: GRIP2_3, Q9C0E4
Sequence of GRIP2_3, Q9C0E4 (Q9C0E4 238-339): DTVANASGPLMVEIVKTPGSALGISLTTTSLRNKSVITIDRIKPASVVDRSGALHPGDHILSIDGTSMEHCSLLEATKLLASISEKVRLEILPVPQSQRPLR

Inadl_4, Q8NI35 = target: Inadl_4, Q8NI35
Sequence of Inadl_4, Q8NI35 (Q8NI35 547-651): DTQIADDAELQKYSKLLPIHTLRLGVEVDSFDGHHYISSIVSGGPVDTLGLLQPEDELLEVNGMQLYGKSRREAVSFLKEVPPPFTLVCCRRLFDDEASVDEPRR

Inadl_5, Q8NI35 = target: Inadl_5, Q8NI35
Sequence of Inadl_5, Q8NI35 (Q8NI35 673-780): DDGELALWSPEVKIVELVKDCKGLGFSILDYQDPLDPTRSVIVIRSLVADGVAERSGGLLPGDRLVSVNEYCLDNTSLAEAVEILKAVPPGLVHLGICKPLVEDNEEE

Inadl_6, Q8NI35 = target: Inadl_6, Q8NI35
Sequence of Inadl_6, Q8NI35 (Q8NI35 1058-1167): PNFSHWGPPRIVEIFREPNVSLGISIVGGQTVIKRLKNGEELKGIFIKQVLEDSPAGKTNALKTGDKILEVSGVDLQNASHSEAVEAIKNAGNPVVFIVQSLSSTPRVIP

Inadl_9, Q8NI35 = target: Inadl_9, Q8NI35
Sequence of Inadl_9, Q8NI35 (Q8NI35 1530-1615): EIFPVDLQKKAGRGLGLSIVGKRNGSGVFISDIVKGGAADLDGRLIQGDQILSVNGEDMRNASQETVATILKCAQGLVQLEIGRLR

LAP2, Q96RT1 = target: LAP2, Q96RT1
Sequence of LAP2, Q96RT1 (Q96RT1 other isoform, or with tags, fused parts or gaps): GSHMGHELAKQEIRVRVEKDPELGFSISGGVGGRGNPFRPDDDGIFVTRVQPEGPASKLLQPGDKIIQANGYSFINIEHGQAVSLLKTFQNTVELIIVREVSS

LRRC7, Q96NW7 = target: T5, LRRC7, Q96NW7
T5 sequence (Q96NW7 1440-1537, limits assumed, looked up): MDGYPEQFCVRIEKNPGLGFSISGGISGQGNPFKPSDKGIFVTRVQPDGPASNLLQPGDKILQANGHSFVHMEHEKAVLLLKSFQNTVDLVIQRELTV

MAGI1_2, Q96QZ7 = target: MAGI1_2, Q96QZ7
Sequence of MAGI1_2, Q96QZ7 (Q96QZ7 456-580): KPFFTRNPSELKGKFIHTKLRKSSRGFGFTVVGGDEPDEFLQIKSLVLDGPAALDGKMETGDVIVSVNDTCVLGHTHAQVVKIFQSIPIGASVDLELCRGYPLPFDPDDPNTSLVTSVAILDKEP

MAGI2_5, Q86UL8 = target: MAGI2_5, Q86UL8
Sequence of MAGI2_5, Q86UL8 (Q86UL8 915-1017): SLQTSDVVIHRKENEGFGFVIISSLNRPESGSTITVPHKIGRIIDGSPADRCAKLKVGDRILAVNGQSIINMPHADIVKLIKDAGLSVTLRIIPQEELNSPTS

MPDZ_5, O75970 = target: T6, MPDZ_5, O75970
T6 sequence (O75970 695-796, limits assumed, looked up): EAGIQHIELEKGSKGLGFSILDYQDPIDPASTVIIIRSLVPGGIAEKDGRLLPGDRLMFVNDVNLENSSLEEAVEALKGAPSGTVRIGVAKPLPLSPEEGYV

MPP7, Q5T2T1 = target: T7, MPP7, Q5T2T1
T7 sequence (Q5T2T1 134-230, limits assumed, looked up): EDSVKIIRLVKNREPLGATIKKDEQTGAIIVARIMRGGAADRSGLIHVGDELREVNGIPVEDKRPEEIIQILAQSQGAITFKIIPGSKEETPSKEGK

PARD3_3, Q8TEW0 = target: PARD3_3, Q8TEW0
Sequence of PARD3_3, Q8TEW0 (Q8TEW0 582-685): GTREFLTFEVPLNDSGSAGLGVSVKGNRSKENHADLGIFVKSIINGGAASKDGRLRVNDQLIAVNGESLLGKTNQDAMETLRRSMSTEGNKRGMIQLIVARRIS

PCLO, Q9Y6V0 = target: T8, PCLO, Q9Y6V0
T8 sequence (Q9Y6V0 4491-4600, limits assumed, looked up): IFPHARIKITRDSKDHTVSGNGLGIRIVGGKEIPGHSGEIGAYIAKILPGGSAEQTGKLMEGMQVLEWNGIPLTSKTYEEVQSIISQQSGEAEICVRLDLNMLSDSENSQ

RAPGEF6, Q8TEU7 = target: T9, RAPGEF6, Q8TEU7
T9 sequence (Q8TEU7 525-625, limits assumed, looked up): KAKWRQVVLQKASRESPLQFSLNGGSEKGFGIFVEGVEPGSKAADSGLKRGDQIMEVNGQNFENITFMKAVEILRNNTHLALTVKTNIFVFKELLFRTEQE

TJP1_2, Q07157 = target: TJP1_2, Q07157
Sequence of TJP1_2, Q07157 (Q07157 181-274): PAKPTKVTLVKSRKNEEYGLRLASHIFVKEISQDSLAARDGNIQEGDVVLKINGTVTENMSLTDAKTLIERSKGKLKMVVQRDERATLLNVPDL

TJP1_3, Q07157 = target: TJP1_3, Q07157
Sequence of TJP1_3, Q07157 (Q07157 416-512): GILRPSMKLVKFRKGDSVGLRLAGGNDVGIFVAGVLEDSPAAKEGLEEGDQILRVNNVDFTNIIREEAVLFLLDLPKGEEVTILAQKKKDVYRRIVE

TJP2_1, Q9UDY2 = target: TJP2_1, Q9UDY2
Sequence of TJP2_1, Q9UDY2 (Q9UDY2 24-128): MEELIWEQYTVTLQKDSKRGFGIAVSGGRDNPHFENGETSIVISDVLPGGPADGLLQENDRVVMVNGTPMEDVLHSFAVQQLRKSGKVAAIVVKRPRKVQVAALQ

[1] = plain residues with an end cap or a label only (N-terminal biotin on a linker: ahx)
[2] = plain residues with an end cap or a label only (N-terminal biotin on a linker: ado-ado)
[3] = plain residues with an end cap or a label only (N-terminal biotin on a linker: ttds)

Sequence of DLG1_2, Q12959 (Q12959 314-412): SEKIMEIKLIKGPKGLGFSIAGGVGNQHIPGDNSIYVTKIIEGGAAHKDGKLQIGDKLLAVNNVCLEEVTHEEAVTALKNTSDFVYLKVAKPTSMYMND
Sequence of ARHGEF12, Q9NZN5-2 (Q9NZN5 other isoform, or with tags, fused parts or gaps): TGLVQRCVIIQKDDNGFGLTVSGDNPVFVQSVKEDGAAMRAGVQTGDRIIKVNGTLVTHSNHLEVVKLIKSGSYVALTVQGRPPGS
Sequence of DLG2_2, Q15700 (Q15700 189-283): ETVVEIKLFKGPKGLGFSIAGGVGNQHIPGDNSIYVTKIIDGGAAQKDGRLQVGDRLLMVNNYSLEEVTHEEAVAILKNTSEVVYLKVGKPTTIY

B1: RAPGEF6, Q8TEU7 (peptide)
chain: ADENEQVSAV
pKd (ARHGEF12, Q9NZN5-2; [1]): 3.83 | pKd (DLG1_2, Q12959; [1]): 4.01 | pKd (DLG2_2, Q15700; [1]): 3.57 | pKd (DLG3_2, Q92796; [1]): 4 | pKd (DLG4_1, P78352; [1]): 3.6 | pKd (FRMPD1, Q5SYB0; [1]): below the threshold | pKd (FRMPD3, Q5JV73; [1]): below the threshold | pKd (GOPC, Q9HD26; [1]): below the threshold | pKd (GORASP2, Q9H8Y8; [1]): below the threshold | pKd (GRIP1_3, Q9Y3R0; [1]): below the threshold | pKd (GRIP1_7, Q9Y3R0; [1]): below the threshold | pKd (GRIP2_3, Q9C0E4; [1]): below the threshold | pKd (Inadl_4, Q8NI35; [1]): below the threshold | pKd (Inadl_5, Q8NI35; [1]): below the threshold | pKd (Inadl_6, Q8NI35; [1]): 3.59 | pKd (Inadl_9, Q8NI35; [1]): below the threshold | pKd (LAP2, Q96RT1; [1]): below the threshold | pKd (LRRC7, Q96NW7; [1]): below the threshold | pKd (MAGI1_2, Q96QZ7; [1]): 3.83 | pKd (MAGI2_5, Q86UL8; [1]): 4.38 | pKd (MPDZ_5, O75970; [1]): below the threshold | pKd (MPP7, Q5T2T1; [1]): below the threshold | pKd (PARD3_3, Q8TEW0; [1]): below the threshold | pKd (PCLO, Q9Y6V0; [1]): below the threshold | pKd (RAPGEF6, Q8TEU7; [1]): below the threshold | pKd (TJP1_2, Q07157; [1]): below the threshold | pKd (TJP1_3, Q07157; [1]): below the threshold | pKd (TJP2_1, Q9UDY2; [1]): below the threshold

B2: DCHS2, Q6V1P9 (peptide)
chain: ELKAEDEVQI
pKd (ARHGEF12, Q9NZN5-2; [2]): below the threshold | pKd (DLG1_2, Q12959; [2]): below the threshold | pKd (DLG2_2, Q15700; [2]): below the threshold | pKd (DLG3_2, Q92796; [2]): 3.59 | pKd (DLG4_1, P78352; [2]): below the threshold | pKd (FRMPD1, Q5SYB0; [2]): below the threshold | pKd (FRMPD3, Q5JV73; [2]): below the threshold | pKd (GOPC, Q9HD26; [2]): below the threshold | pKd (GORASP2, Q9H8Y8; [2]): below the threshold | pKd (GRIP1_3, Q9Y3R0; [2]): below the threshold | pKd (GRIP1_7, Q9Y3R0; [2]): below the threshold | pKd (GRIP2_3, Q9C0E4; [2]): below the threshold | pKd (Inadl_4, Q8NI35; [2]): below the threshold | pKd (Inadl_5, Q8NI35; [2]): below the threshold | pKd (Inadl_6, Q8NI35; [2]): below the threshold | pKd (Inadl_9, Q8NI35; [2]): below the threshold | pKd (LAP2, Q96RT1; [2]): below the threshold | pKd (LRRC7, Q96NW7; [2]): below the threshold | pKd (MAGI1_2, Q96QZ7; [2]): below the threshold | pKd (MAGI2_5, Q86UL8; [2]): below the threshold | pKd (MPDZ_5, O75970; [2]): below the threshold | pKd (MPP7, Q5T2T1; [2]): 4 | pKd (PARD3_3, Q8TEW0; [2]): 4.74 | pKd (PCLO, Q9Y6V0; [2]): below the threshold | pKd (RAPGEF6, Q8TEU7; [2]): below the threshold | pKd (TJP1_2, Q07157; [2]): 3.87 | pKd (TJP1_3, Q07157; [2]): below the threshold | pKd (TJP2_1, Q9UDY2; [2]): below the threshold

B3: PDLIM2, Q96JY6 (peptide)
chain: SAPATLSSRA
pKd (ARHGEF12, Q9NZN5-2; [1]): below the threshold | pKd (DLG1_2, Q12959; [1]): below the threshold | pKd (DLG2_2, Q15700; [1]): below the threshold | pKd (DLG3_2, Q92796; [1]): below the threshold | pKd (DLG4_1, P78352; [1]): below the threshold | pKd (FRMPD1, Q5SYB0; [1]): below the threshold | pKd (FRMPD3, Q5JV73; [1]): below the threshold | pKd (GOPC, Q9HD26; [1]): below the threshold | pKd (GORASP2, Q9H8Y8; [1]): below the threshold | pKd (GRIP1_3, Q9Y3R0; [1]): below the threshold | pKd (GRIP1_7, Q9Y3R0; [1]): below the threshold | pKd (GRIP2_3, Q9C0E4; [1]): below the threshold | pKd (Inadl_4, Q8NI35; [1]): below the threshold | pKd (Inadl_5, Q8NI35; [1]): below the threshold | pKd (Inadl_6, Q8NI35; [1]): below the threshold | pKd (Inadl_9, Q8NI35; [1]): below the threshold | pKd (LAP2, Q96RT1; [1]): below the threshold | pKd (LRRC7, Q96NW7; [1]): below the threshold | pKd (MAGI1_2, Q96QZ7; [1]): below the threshold | pKd (MAGI2_5, Q86UL8; [1]): below the threshold | pKd (MPDZ_5, O75970; [1]): below the threshold | pKd (MPP7, Q5T2T1; [1]): below the threshold | pKd (PARD3_3, Q8TEW0; [1]): below the threshold | pKd (PCLO, Q9Y6V0; [1]): below the threshold | pKd (RAPGEF6, Q8TEU7; [1]): below the threshold | pKd (TJP1_2, Q07157; [1]): below the threshold | pKd (TJP1_3, Q07157; [1]): below the threshold | pKd (TJP2_1, Q9UDY2; [1]): below the threshold

B4: NET1, Q7Z628 (peptide)
chain: SGGKRKETLV
pKd (ARHGEF12, Q9NZN5-2; [3]): 3.74 | pKd (DLG1_2, Q12959; [3]): 5.78 | pKd (DLG2_2, Q15700; [3]): 5.26 | pKd (DLG3_2, Q92796; [3]): 5.43 | pKd (DLG4_1, P78352; [3]): 5.21 | pKd (FRMPD1, Q5SYB0; [3]): below the threshold | pKd (FRMPD3, Q5JV73; [3]): below the threshold | pKd (GOPC, Q9HD26; [3]): 3.82 | pKd (GORASP2, Q9H8Y8; [3]): 4.03 | pKd (GRIP1_3, Q9Y3R0; [3]): below the threshold | pKd (GRIP1_7, Q9Y3R0; [3]): below the threshold | pKd (GRIP2_3, Q9C0E4; [3]): below the threshold | pKd (Inadl_4, Q8NI35; [3]): below the threshold | pKd (Inadl_5, Q8NI35; [3]): 3.78 | pKd (Inadl_6, Q8NI35; [3]): 3.6 | pKd (Inadl_9, Q8NI35; [3]): 3.66 | pKd (LAP2, Q96RT1; [3]): below the threshold | pKd (LRRC7, Q96NW7; [3]): below the threshold | pKd (MAGI1_2, Q96QZ7; [3]): 5.72 | pKd (MAGI2_5, Q86UL8; [3]): 4.56 | pKd (MPDZ_5, O75970; [3]): below the threshold | pKd (MPP7, Q5T2T1; [3]): below the threshold | pKd (PARD3_3, Q8TEW0; [3]): below the threshold | pKd (PCLO, Q9Y6V0; [3]): below the threshold | pKd (RAPGEF6, Q8TEU7; [3]): below the threshold | pKd (TJP1_2, Q07157; [3]): below the threshold | pKd (TJP1_3, Q07157; [3]): below the threshold | pKd (TJP2_1, Q9UDY2; [3]): 3.8
